Reference: publication doi:10.1101/2025.07.31.667833, “Coiled-coil-mediated phase separation of Spef1 for non-centrosomal microtubule organization and function” (bioRxiv, 2025)
Numbering of substitutions follows the chain as printed. In names and notes the source's numbering stands.

B1: full-length wild-type Spef1 (mouse) (natural protein, UniProt Q99JL1 1-234, looked up)
chain: MESSVDEEALHQLYLWVDNIPLSRPKRNLSRDFSDGVLVAELIKFYFPKMVEMHNYVPANSLQQKLSNWGHLNRKVLNKLNFSVPDDVMRKIAQCSPGVVELVLIPLRQRLEERQRRQKLGVGSLQELAPQDSSGYMDMGLPQKVRGEGAPALGEQLREGRPLASRPPGYNQALQGDPSFVLQIAEKEQELLASQETVQVLQMKVKRLEHLLQLKNVRIDDLSRRLQQAERKQR
notes: Spef1 (sperm flagellar protein 1, CLAMP), mouse, full length; also called WT; CLAMP; source: E. coli BL21(DE3), purified (Ni2+-Sepharose, size-exclusion chromatography)
B2: Spef1 E186A/E188A/E190A mutant (full-length) (natural protein, mouse, UniProt Q99JL1 1-234, looked up)
chain: B1 chain with E186A, E188A, E190A
notes: Spef1, mouse, full length, with E186A, E188A and E190A on the coiled-coil surface; also called charge-changing mutant; source: E. coli BL21(DE3), purified (Ni2+-Sepharose, size-exclusion chromatography)
B3: Spef1 K206A/R207A mutant (full-length) (natural protein, mouse, UniProt Q99JL1 1-234, looked up)
chain: B1 chain with K206A, R207A
notes: Spef1, mouse, full length, with K206A and R207A on the coiled-coil surface; also called KR; charge-changing mutant; source: E. coli BL21(DE3), purified (Ni2+-Sepharose, size-exclusion chromatography)

Target: the molecule itself
Experiment: SEC-MALS; ~1 mg/ml protein in 50 mM Tris-HCl pH 8.0, 500 mM NaCl, 1 mM EDTA, 1 mM DTT; WTC SEC column, 18-angle light scattering; oligomeric state (dimer or monomer)

Stoichiometry N, 2:
B1, B2, B3
